This passage reports Ki results from PMC2835468 (Matrix biology : journal of the International Society for …, 2009).

Test [1] concerns the target Catalytic domain of human MMP-3 (MMP-3cat) (human, UniProt P08254 100-272). As to the kind of experiment: enzyme inhibition kinetics.
For test [2], the target named is T1, Catalytic domain of human MMP-1 (MMP-1cat) (human, UniProt P03956 100-269).
T1 sequence (looked up): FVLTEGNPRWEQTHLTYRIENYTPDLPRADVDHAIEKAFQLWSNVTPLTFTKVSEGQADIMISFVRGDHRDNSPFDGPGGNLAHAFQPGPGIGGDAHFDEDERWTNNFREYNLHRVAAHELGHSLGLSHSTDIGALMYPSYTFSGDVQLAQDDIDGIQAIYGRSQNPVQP
Nature of the test: enzyme inhibition kinetics.

Sequence of Catalytic domain of human MMP-3 (MMP-3cat) (P08254 100-272): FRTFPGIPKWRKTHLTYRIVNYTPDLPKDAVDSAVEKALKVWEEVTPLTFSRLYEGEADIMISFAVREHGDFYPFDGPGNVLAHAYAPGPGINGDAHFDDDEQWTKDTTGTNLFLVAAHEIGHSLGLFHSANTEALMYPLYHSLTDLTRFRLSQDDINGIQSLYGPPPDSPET

B1: FLAG-tagged glycosylated human TIMP-3 (full-length tissue inhibitor of metalloproteinases 3), expressed in HEK293 (natural protein, UniProt P35625 24-211, looked up)
chain: CTCSPSHPQDAFCNSDIVIRAKVVGKKLVKEGPFGTLVYTIKQMKMYRGFTKMPHVQYIHTEASESLCGLKLEVNKYQYLLTGRVYDGKMYTGLCNFVERWDQLTLSQRKGLNYRYHLGCNCKIKSCYYLPCFVTSKNECLWTDMLSNFGYPGYQSKHYACIRQKGGYCSWYRGWAPPDKSIINATDP
modifications: glycosylated (only the 27 kDa glycosylated form remained after purification; single N-glycosylation site in the C-terminal domain)
The Ki is a dissociation constant, usually derived from enzyme kinetics or from competition with a known ligand. For the molecule B1, the Ki in test [1] came to 1 nM; in test [2] it was 1.1 nM.
